Assays:
[1] = biological target: T1, SIGNR1-hFc (extracellular region of murine SIGNR1 fused to the Fc part of human IgG1) (mouse; human, UniProt Q8CJ91 74-325; P01857 104-330 = IgG part, limits assumed); experiment: flow cytometry of SlpA-coated beads with hFc fusion proteins
T1 construct: extracellular domain;domain: Fc part of human IgG1; Expressed in CHO-S cells
Method: (§1) FIGS. 5A-5D. L. acidophilus NCK2187 and its SlpA bind to murine SIGNR3 to induce regulatory signals. A. B6 mice were orally gavaged with 10⁹ CFU NCK56 or NCK2187 and the colonic gene expression of C-type lectin receptors were measured by RT-PCR. Each box represents an individual mouse; n=4. Data represent three individual experiments and are shown as mean±SEM. B. Binding of SlpA to various hFc fusion proteins were analyzed by flow cytometry. Gray tinted line=SlpA-coated beads only; orange=SlpA-coated beads+secondary antibody; green=SlpA-coated beads+control fusion protein; blue=SlpA-coated beads+SIGNR1-hFc; red=SlpA-coated beads+SIGNR3-hFc. Binding assays results were confirmed five independent times. C. […] production by colonic DCs of naïve WT B6 GF or Signr3^{-/-} mice treated with NCK56 (blue) or NCK2187 (green) on days 0, 3, 6, and 9, or left untreated (black), as determined by flow cytometry. D. Frequency of colonic FoxP3⁺ Tregs in KO mice treated with NCK56 or NCK2187 was measured by flow cytometry. n=5 mice/group. Data represent four individual experiments and are shown as mean±SEM. *P<0.05. […]
(§2) C-type lectin receptors, SIGNR1 and SIGNR3, were fused to the Fc part of human IgG1 (SIGNR1-hFc and SIGNR3-hFc) as previously described (Eriksson et al., 2013). […] Binding of SlpA-coated beads (Dynabeads MyOne Carboxylic Acid, Life Technologies) to fusion proteins was analyzed by flow cytometry.

hFc = biological target: T2, hFc (human, UniProt P01857-1 104-330 = IgG part, limits assumed); experiment: as above
T2 construct: domain: Fc; Fc-only control in the SlpA bead assay; also called human Fc
Method: as §1, §2

T1 sequence (Q8CJ91 other isoform, or with tags, fused parts or gaps limits assumed): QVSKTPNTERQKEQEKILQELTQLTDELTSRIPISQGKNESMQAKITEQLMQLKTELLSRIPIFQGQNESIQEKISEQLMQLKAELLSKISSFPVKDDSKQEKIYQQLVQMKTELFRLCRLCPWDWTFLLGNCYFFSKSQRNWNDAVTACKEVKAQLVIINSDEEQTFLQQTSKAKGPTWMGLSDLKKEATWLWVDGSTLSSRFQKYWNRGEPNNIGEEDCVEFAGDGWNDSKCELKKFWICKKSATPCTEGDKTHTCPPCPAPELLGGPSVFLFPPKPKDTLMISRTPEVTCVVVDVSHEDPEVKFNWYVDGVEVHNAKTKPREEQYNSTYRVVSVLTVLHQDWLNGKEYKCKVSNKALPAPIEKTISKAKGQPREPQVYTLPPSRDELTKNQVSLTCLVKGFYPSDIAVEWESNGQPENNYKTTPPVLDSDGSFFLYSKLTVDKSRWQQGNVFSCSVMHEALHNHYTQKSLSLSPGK

binding result [1]: no binding
binding result (hFc): no binding
B1: Lactobacillus acidophilus surface layer protein A (SlpA), purified from strain NCK2187 (other)
chain: AVSTVSAATTINASSSAINTNTNAKYDVDVTPSVSAVAANTANNTPAIAGNLTGTISASYNGKTYTANLKADTENATITAAGSTTAVKPAELAAGVAYTVTVNDVSFNFGSENAGKTVTLGSANSNVKFTGTNSDNQTETNVSTLKVKLDQNGVASLTNVSIANVYAINTTDNSNVNFYDVTSGATVTNGAVSVNADNQGQVNVANVVAAINSKYFAAQYADKKLNTRTANTEDAIKAALKDQKIDVNSVGYFKAPHTFTVNVKATSNTNGKSATLPVVVTVPNVAEPTVASVSKRIMHNAYYYDKDAKRVGTDSVKRYNSVSVLPNTTTINGKTYYQVVENGKAVDKYINAANIDGTKRTLKHNAYVYASSKKRANKVVLKKGEVVTTYGASYTFKNGQKYYKIGDNTDKTYVKVANFR
notes: Native protein extracted from the surface of L. acidophilus NCK2187 with 5 M LiCl or 5 M NaCl (46 kDa band); In the assays it was coated on carboxylated beads or ELISA plates, blotted, or pulsed onto RAW 264.7 cells; also called L. acidophilus-SlpA; purified SlpA

— patent US20200172582A1 (UNIVERSITY OF FLORIDA RESEARCH FOUNDATION, published 2020)
